Reference: patent US20100260769A1 (MORPHOTEK, published 2010)

T1: full length human TEM1 (endosialin) with a C-terminal V5-His tag, expressed in A431-TEM1 cells / tumor … (human, UniProt Q9HCU0 18-757)
T1 construct: Target in tissue sections of A431-TEM1 tumor xenografts; also called hTEM1; endosialin/TEM1
T1 sequence: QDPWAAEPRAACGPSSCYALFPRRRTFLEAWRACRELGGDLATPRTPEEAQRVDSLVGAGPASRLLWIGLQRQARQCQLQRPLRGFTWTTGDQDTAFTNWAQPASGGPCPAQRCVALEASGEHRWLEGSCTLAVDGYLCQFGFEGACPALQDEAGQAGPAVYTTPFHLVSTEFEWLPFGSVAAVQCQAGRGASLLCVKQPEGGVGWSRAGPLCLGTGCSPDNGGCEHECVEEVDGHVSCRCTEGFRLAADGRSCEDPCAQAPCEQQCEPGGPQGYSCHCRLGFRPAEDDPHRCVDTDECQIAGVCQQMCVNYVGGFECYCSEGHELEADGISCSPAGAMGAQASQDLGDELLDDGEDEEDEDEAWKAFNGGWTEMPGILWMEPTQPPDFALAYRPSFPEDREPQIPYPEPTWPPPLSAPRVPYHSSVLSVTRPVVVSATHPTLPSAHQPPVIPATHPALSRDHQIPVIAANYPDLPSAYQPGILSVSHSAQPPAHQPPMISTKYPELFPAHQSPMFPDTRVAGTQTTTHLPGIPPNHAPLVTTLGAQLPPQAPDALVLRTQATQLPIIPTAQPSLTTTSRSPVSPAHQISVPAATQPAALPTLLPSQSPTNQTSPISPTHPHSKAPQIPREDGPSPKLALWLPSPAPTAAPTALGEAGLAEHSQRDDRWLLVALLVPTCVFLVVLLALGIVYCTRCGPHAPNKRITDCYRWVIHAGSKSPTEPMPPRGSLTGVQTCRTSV

T2: mouse TEM1 extracellular domain (ECD)-Fc fusion protein (mouse, UniProt Q91V98 18-695)
T2 construct: also called mouse TEM1-Fc
T2 sequence: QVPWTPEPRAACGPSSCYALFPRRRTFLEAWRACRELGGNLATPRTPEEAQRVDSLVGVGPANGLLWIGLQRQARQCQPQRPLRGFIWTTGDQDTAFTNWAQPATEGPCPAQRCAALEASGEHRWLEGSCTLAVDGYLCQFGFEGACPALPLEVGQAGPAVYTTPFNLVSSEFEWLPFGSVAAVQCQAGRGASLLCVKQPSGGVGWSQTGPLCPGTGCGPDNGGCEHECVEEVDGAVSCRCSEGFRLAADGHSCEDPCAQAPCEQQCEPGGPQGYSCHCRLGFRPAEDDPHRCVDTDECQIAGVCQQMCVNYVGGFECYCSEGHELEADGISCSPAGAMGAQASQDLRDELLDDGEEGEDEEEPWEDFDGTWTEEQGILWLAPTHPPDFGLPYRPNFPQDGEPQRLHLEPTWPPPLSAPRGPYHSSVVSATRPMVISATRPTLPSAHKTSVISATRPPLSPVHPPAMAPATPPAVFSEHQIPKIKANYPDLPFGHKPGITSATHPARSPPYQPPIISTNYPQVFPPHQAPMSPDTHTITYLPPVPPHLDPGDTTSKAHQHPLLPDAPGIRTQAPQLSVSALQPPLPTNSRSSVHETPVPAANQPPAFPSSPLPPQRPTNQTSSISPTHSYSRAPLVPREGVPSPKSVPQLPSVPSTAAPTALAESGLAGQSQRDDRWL


Columns and labels:
[1] = biological target: soluble human endosialin extracellular domain-mouse Fc fusion protein (human; mouse); assay: competition ELISA: hTEM1-Fc (15 µg/mL) preincubated with serial dilutions of antibody, binding to fibronectin-coated plate detected with anti-mouse HRP
[2] = biological target: T1, full length human TEM1 (endosialin) …; assay: IHC on FFPE A431-TEM1 tumor xenograft sections, biotinylated antibody at 20 µg/ml
[3] = biological target: T2, mouse TEM1 extracellular domain …; assay: hybridoma screening ELISA on TEM1-Fc protein, Fc-reactive clones removed by counterscreen
Procedure: To generate rabbit anti-mouse endosialin (TEM1) antibody clone 8, we immunized two New Zealand white rabbits with four injections of mouse TEM1 extracellular domain (ECD)-Fc fusion protein. Antiserum titer was monitored using standard ELISA (TEM1) and counterscreen ELISA for Fc reactivity. A final IV boost was performed within 4-8 weeks of the last regular injection boost. Splenectomies were performed after the final IV boost. Lymphocytes were isolated from each rabbit spleen. Fusions with 240E-W3 cells (Epitomics) were performed in forty 96-well plates. Standard ELISA screening for 40 plates was performed using TEM1-Fc protein. All positive hybridomas were expanded to 24-well plates and confirmatory standard and differential ELISA were performed. Fc reactive clones were counterscreened and removed, leaving the TEM1-reactive clones. Positive hybridomas were expanded for Ig gene sequencing and generation of purified Ab. One positive hybridoma was assigned the designation clone 8.

IC50 [1] | binding result [2] | binding result [3] | Binder
69.5 µg/mL | binds | – | rabbit anti-human endosialin monoclonal antibody 1-55-2 (antibody, V domains shown, Rabbit IgG from a hybridoma, kappa light chain; rabbit constant regions are not; also called hybridoma 1-55-2 (ATCC PTA-9652)) VH: QQQLMESGGDLVKPEGSLTLTCTASGFSFSSSYWGCWVRQAPGKGPEWIACIYGGSSGTTYYPNWAKGRFSISKTSSTTVTLQMASLTAADTATYFCARVTNGGDWDFKLWGPGTLVTVSS VL: ELVMTQTPASVEVAVGGTVTIKCQASQSINTYLAWYQQKPGQPPKLLIYRASTLASGVPSRFKGSGSGTEFTLTISDLECADAATYYCQQSVRVIDVDNTFGGGTEVVVK
41.5 µg/mL | – | – | rabbit anti-human endosialin monoclonal antibody 1-25-2 (antibody, V domains shown) VH: AQSLEESGGDLVKPEGSLTLTCTASGFSFSSSYWGCWVRQAPGKGPEWIACIYGGSSGTTYYPNWAKGRFSISKTSSTTVTLQMASLTAADTATYFCARVTNGGDWDFKLWGPGTLVTISS VL: ELVLTQTPASVEVAVGGTVTIKCQASQTINNYLTWYQQKPGQPPKLLIYRASTLASGVPSRFKGSGSGTEFTLTISDLECADAATYYCQQTVRVVDVDNSFGGGTEVVVK
– | – | binds | rabbit anti-mouse endosialin monoclonal antibody clone 8 (antibody, V domains shown, Rabbit IgG from a hybridoma, kappa light chain; rabbit constant regions are not; also called hybridoma clone 8 (ATCC PTA-9651)) VH: AQSVEESGGGLVKPEGSLTLSCKASGFSFSNNSYICWVRQAPGKGLEWIACIEFGRGNSHYASWAKGRFTITRSTSLNTVTLQLNSLTAADTATYFCARGSRGVGYGYGLWGPGTLVTISS VL: ELDMTQTPSPVSAAVGGTVTINCQASQSVYSNSRLSWYQQKPGQPPKQLIYSASTLASGVPSRFKGSGSGTHFTLTLSGVQCDDAATYYCQGEFACSSADCSAFGGGTELEILK
21.4 µg/mL | – | – | rabbit anti-human endosialin monoclonal antibody 1-3-1 (antibody, V domains shown) VH: AQSVEESGGDLVRPGASLTLTCSASGFTINRNYWICWVRQAPGRGPEWIACIYGGSSGTTYYTNWAKGRFTISKAASTTVTLQMTSLTVADTATYFCARVDNGGDWYFRLWGPGTLVTISS VL: ELDLTQTPASVEVAVGGTVTIKCQASQSISSYLAWYQQKPGQPPKLLIYRASTLASGVSSRFKGSGSGTEFTLTISGVQCDDAATYYCQQGVRVVDIDNSFGGGTELVVK
